Source: patent publication US20160091498

Target: purified histone H4 (New England Biolabs), P62805

B1: purified ACK1 (protein)
chain: GEGPLQSLTCLIGEKDLRLLEKLGDGSFGVVRRGEWDAPSGKTVSVAVKCLKPDVLSQPEAMDDFIREVNAMHSLDHRNLIRLYGVVLTPPMKMVTELAPLGSLLDRLRKHQGHFLLGTLSRYAVQVAEGMGYLESKRFIHRDLAARNLLLATRDLVKIGDFGLMRALPQNDDHYVMQEHRKVPFAWCAPESLKTRTFSHASDTWMFGVTLWEMFTYGQEPWIGLNGSQILHKIDKEGERLPRPEDCPQDIYNVMVQCWAHKPEDRPTFVALRDFLLEAQPTDMRALQDFEEPDKLHIQMNDVITVIEGRAENYWWRGQNTRTLCVGPFPRNVVTSVAGLSAQDISQPLQNSFIHTGHGDSDPRHCW
  in vitro kinase assay with all the four core histones, immunoblotting with pY88-H4 antibodies: Presence of band exclusively when ACK1 was incubated with H4
  in vitro kinase assay, immunoblotting with pY88-H4 and pTyr antibodies: indeed H4 is directly Tyr-phosphorylated by ACK1
